Assay results reported in publication PMC4188090, “Crystallization and preliminary X-ray diffraction analyses of the redox-controlled complex of terminal oxygenase and ferredoxin components in the Rieske nonhaem iron oxygenase carbazole 1,9a-dioxygenase” (Acta Crystallographica. Section F, Structural Biology …, 2014).

B1: ferredoxin (Fd) component of carbazole 1,9a-dioxygenase (CARDO) from Pseudomonas resinovorans CA10, oxidized state (natural protein)
chain: MNQIWLKVCAASDMQPGTIRRVNRVGAAPLAVYRVGDQFYATEDTCTHGIASLSEGTLDGDVIECPFHGGAFNVCTGMPASSPCTVPLGVFEVEVKEGEVYVAGEKK
notes: ferredoxin component (Fd) of carbazole 1,9a-dioxygenase, Pseudomonas resinovorans CA10; histidine-tagged; Holds a Rieske-type [2Fe-2S] cluster (oxidized in this experiment); Called a monomer in the crystal; Construct as in earlier work (Ashikawa et al., 2005; Matsuzawa et al., 2013); also called Fdox; oxidized Fd; source: E. coli BL21(DE3), purified (metal-chelation chromatography, gel filtration)
B2: terminal oxygenase (Oxy) component of carbazole 1,9a-dioxygenase (CARDO) from Janthinobacterium sp. J3, reduced state (enzyme, UniProt Q84II6 1-384, looked up)
chain: MANVDEAILKRVKGWAPYVDAKLGFRNHWYPVMFSKEINEGEPKTLKLLGENLLVNRIDGKLYCLKDRCLHRGVQLSVKVECKTKSTITCWYHAWTYRWEDGVLCDILTNPTSAQIGRQKLKTYPVQEAKGCVFIYLGDGDPPPLARDTPPNFLDDDMEILGKNQIIKSNWRLAVENGFDPSHIYIHKDSILVKDNDLALPLGFAPGGDRKQQTRVVDDDVVGRKGVYDLIGEHGVPVFEGTIGGEVVREGAYGEKIVANDISIWLPGVLKVNPFPNPDMMQFEWYVPIDENTHYYFQTLGKPCANDEERKKYEQEFESKWKPMALEGFNNDDIWAREAMVDFYADDKGWVNEILFESDEAIVAWRKLASEHNQGIQTQAHVSG
notes: terminal oxygenase component (Oxy) of carbazole 1,9a-dioxygenase, Janthinobacterium sp; J3; histidine-tagged; Holds a Rieske-type [2Fe-2S] cluster (reduced in this experiment) and a nonhaem iron centre; Trimer in the crystal; Construct as in earlier work (Ashikawa et al., 2005; Matsuzawa et al., 2013); also called Oxyred; reduced Oxy; source: E. coli BL21(DE3), purified (metal-chelation …)

Experiments:
[1] = target: B2; assay: crystal structure; Oxyred and Fdox mixed in a 1:3 molar ratio with 10% glycerol, anaerobic, hanging-drop vapour diffusion at 293 K, 0.1 M sodium cacodylate pH 5.7, 14% (w/v) PEG 3350; dissolved crystals checked by SDS-PAGE and anti-His Western blot; data to 2.25 A, molecular replacement with PDB 2de5 (preliminary); details: both partners purified
[2] = target: the molecule itself; assay: as above

B1
stoichiometry N [1]: 2 molecules of the Fd monomer per one Oxy trimer

B2
stoichiometry N [2]: 3
